In the assay the target is mGFP-tagged N-RasG12V (UniProt P01111). The assay is described as follows: FRET or BRET; FLIM-FRET in fixed HEK293 EBNA cells co-transfected with donor mGFP-NRasG12V and acceptor mCherry-PDE6δ plasmids (1:3); apparent FRET efficiency from the donor's lifetime; cells with scrambled siRNA in 0.1% DMSO (control), ICMT siRNA, or 2.5 μM deltarasin for 24 h.
mGFP-tagged N-RasG12V, sequence (P01111 whole entry G12V): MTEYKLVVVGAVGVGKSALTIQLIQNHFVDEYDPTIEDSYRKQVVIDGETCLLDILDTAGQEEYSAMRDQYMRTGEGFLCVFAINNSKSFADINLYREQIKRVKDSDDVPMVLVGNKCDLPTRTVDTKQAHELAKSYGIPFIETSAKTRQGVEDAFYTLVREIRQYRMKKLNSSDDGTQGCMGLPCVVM

mCherry-tagged PDE6δ, sequence (O43924 whole entry, stated change not applied): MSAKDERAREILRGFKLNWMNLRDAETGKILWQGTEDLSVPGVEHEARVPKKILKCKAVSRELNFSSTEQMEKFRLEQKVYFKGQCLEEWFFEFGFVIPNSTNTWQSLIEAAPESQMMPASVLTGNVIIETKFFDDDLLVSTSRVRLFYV

For “mCherry-tagged PDE6δ (from UniProt O43924 1-150) (natural protein)”, the reduction of FRET efficiency with 2.5 μM deltarasin is 50%.
